According to article PMC9891525 (PLOS Pathogens, 2023):

Target: biotinylated recombinant SARS-CoV-2 wild type spike RBD (SARS-CoV-2, wild type, UniProt P0DTC2, biotin (biotinylated; detected with streptavidin-FITC))
Test: flow cytometry on cells
Settings: one partner purified

| Binder | binding result |
| --- | --- |
| REGN10987 scFv combinatorial variant d1 displayed on HEK 293T cells (scFv, V domains shown) VH: QVQLVESGGGVVQPGRSLRLSCAASGFTFSNYAMYWVRQAPGKGLEWVAVISYTGSNKYYADSVKGRFTISRDNSKNTLYLQMNSLRTEDTAVYYCASGSDYGDYLLVYWGQGTLVTVSS VL: QSALTQPASVSGSPGQSITISCTGTSSDVGGYNYVSWYQQHPGKAPKLMIYDVSKRPSGVSNRFSGSKSGNTASLTISGLQSEDEADYYCNSLTSIYTWVFGGGTKLTVL | binds |
| REGN10987 scFv combinatorial variant d2 displayed on HEK 293T cells (scFv, V domains shown) VH: QVQLVESGGGVVQPGRSLRLSCAASGFTFSNYAMYWVRQAPGKGLEWVAVISYDGSHKYYADSVKGRFTISRDNSKNTLYLQMNSLRTEDTAVYYCASGSDYGDYLLVYWGQGTLVTVSS VL: QSALTQPASVSGSPGQSITISCTGTSSDVGGYNYVSWYQQHPGKAPKLMIYDVSKRPSGVSNRFSGSKSGNTASLTISGLQSEDEADYYCNSLTSIYTWVFGGGTKLTVL | binds |
| REGN10987 scFv combinatorial variant d3 displayed on HEK 293T cells (scFv, V domains shown) VH: QVQLVESGGGVVQPGRSLRLSCAASGFTFSNYAMYWVRQAPGKGLEWVAVISYTGSHKYYADSVKGRFTISRDNSKNTLYLQMNSLRTEDTAVYYCASGSDYGDYLLVYWGQGTLVTVSS VL: QSALTQPASVSGSPGQSITISCTGTSSDVGGYNYVSWYQQHPGKAPKLMIYDVSKRPSGVSNRFSGSKSGNTASLTISGLQSEDEADYYCNSLTSIYTWVFGGGTKLTVL | binds |
| REGN10987 scFv combinatorial variant A1 displayed on HEK 293T cells (scFv, V domains shown) VH: QVQLVESGGGVVQPGRSLRLSCAASGFTFSNYAMYWVRQAPGKGLEWVAVISYDGSFKYYADSVKGRFTISRDNSKNTLYLQMNSLRTEDTAVYYCASGSDYGDYNLVYWGQGTLVTVSS VL: QSALTQPASVSGSPGQSITISCTGTSSDVGGYNYVSWYQQHPGKAPKLMIYDVSKRPSGVSNRFSGSKSGNTASLTISGLQSEDEADYYCNSLTSISTWVFGGGTKLTVL | binds |
| REGN10987 scFv combinatorial variant d8 displayed on HEK 293T cells (scFv, V domains shown) VH: QVQLVESGGGVVQPGRSLRLSCAASGFTFSNYAMYWVRQAPGKGLEWVAVISYLGSNKYYADSVKGRFTISRDNSKNTLYLQMNSLRTEDTAVYYCASGSDYGDYLLVYWGQGTLVTVSS VL: QSALTQPASVSGSPGQSITISCTGTSSDVGGYNYVSWYQQHPGKAPKLMIYDVSKRPSGVSNRFSGSKSGNTASLTISGLQSEDEADYYCNSLTSIYTWVFGGGTKLTVL | binds |
| REGN10987 scFv combinatorial variant A2 displayed on HEK 293T cells (scFv, V domains shown) VH: QVQLVESGGGVVQPGRSLRLSCAASGFTFSNYAMYWVRQAPGKGLEWVAVISYDGSTKYYADSVKGRFTISRDNSKNTLYLQMNSLRTEDTAVYYCASGSDYGDYNLVYWGQGTLVTVSS VL: QSALTQPASVSGSPGQSITISCTGTSSDVGGYNYVSWYQQHPGKAPKLMIYDVSKRPSGVSNRFSGSKSGNTASLTISGLQSEDEADYYCNSLTSISTWVFGGGTKLTVL | binds |
| REGN10987 scFv combinatorial variant d6 displayed on HEK 293T cells (scFv, V domains shown) VH: QVQLVESGGGVVQPGRSLRLSCAASGFTFSNYAMYWVRQAPGKGLEWVAVISYIGSNKYYADSVKGRFTISRDNSKNTLYLQMNSLRTEDTAVYYCASGSDYGDYLLVYWGQGTLVTVSS VL: QSALTQPASVSGSPGQSITISCTGTSSDVGGYNYVSWYQQHPGKAPKLMIYDVSKRPSGVSNRFSGSKSGNTASLTISGLQSEDEADYYCNSLTSIYTWVFGGGTKLTVL | binds |
